Key:
[1] = biological target: recombinant outer surface protein A (rOspA) of Borrelia burgdorferi (Borrelia burgdorferi) (UniProt P0CL66)
[2] = biological target: T1, biotinylated OspA protein (Borrelia burgdorferi, UniProt P0CL66, biotin (site not stated)); experiment: BLI; Octet Red96; biotinylated OspA immobilised on streptavidin biosensors; antibody 3.7-300 nM, 180 s association, 600 s dissociation in PBST with 0.1% bovine serum albumin; global fitting; conditions: both partners purified
T1 construct: outer surface protein A (OspA), Borrelia burgdorferi; biotinylated for capture on streptavidin biosensors; May be the GenScript rOspA after biotinylation; also called biotinylated OspA proteins
T1 sequence (P0CL66 17-273): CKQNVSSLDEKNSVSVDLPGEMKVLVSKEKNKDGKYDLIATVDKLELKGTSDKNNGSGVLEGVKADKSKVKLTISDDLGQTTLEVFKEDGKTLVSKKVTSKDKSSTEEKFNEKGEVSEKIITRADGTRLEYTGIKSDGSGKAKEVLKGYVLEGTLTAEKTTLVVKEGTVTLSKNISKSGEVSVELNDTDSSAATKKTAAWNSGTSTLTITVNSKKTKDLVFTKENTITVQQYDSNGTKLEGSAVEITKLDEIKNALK

[3] = biological target: T2, recombinant outer surface protein A (rOspA) of Borrelia burgdorferi (Borrelia burgdorferi, UniProt P0CL66); experiment: ELISA; plates coated with 5 µg/mL rOspA; supernatants of transfected Lenti-X 293T cells 72 h after transfection; detection with mouse IgG2b ELISA kit; conditions: one partner purified
T2 construct: outer surface protein A (OspA), Borrelia burgdorferi; recombinant; source: produced by GenScript
T2 sequence (P0CL66 17-273): as above

[4] = biological target: T2, recombinant outer surface protein A …; experiment: ELISA; plates coated with rOspA at 5 µg/mL; mouse serum applied; detection with IgG ELISA detection kit; purified LA-2 IgG2a as standard; conditions: one partner purified

Chain of recombinant outer surface protein A (rOspA) of Borrelia burgdorferi (Borrelia burgdorferi) (P0CL66 17-273): as above

With “LA-2 scFv-albumin fusion protein expressed in Rosa26-targeted mice” the xenodiagnosis: engineered (heterozygous) mice free of infection, by spirochetes in larval ticks fed 21 days after challenge with 10 B. burgdorferi-infected nymphs [1] was 80%.

B1: full-length LA-2 IgG2a (antibody, V domains shown)
VH: QIQLVQSGPELKKPGETVKISCKASGYTFTDYSMYWVKQAPGKGLKRMGWINTETGEPTYADDFKGRFALSLDTSASTAYLHISNLKNEDTATYFCARGLDSWGQGTSVTVSS
VL: DIQMTQSPSSLSATLGGKVTITCKASQDINKYIAWYQHKPGKGPRLLIHYTSTLQPGNPSRFSGSGSGRDYSFSISNLEAEDIAIYYCLQYDNLQRTFGGGTKVEIK
notes: LA-2 heavy-chain variable region; mouse IgG2a heavy-chain constant region; LA-2 light-chain variable region; light-chain constant region; IgG2a; plasmid constructed by GenScript; source: Expi293F, transfected, purified (Protein A-Sepharose 4B)
B1: binds [2].

B2: LA-2 scFv-Fc with Vh-(G4S)3-Vl linker (Fc fusion)
VH: B1 VH
VL: B1 VL
notes: LA-2 heavy-chain variable region, as the VH of m3; flexible (G4S)3 linker, printed as (G4S)3; LA-2 light-chain variable region, as the VL of m3; Cloned into a modified pcDNA3.4 vector; also called scFv with a Vh-(G4S)3-Vl linker; source: Expi293F, transfected, purified (Protein A-Sepharose 4B)
B2: binds [2].

B3: LA-2 scFv-Fc with the top-performing linker … (Fc fusion)
VH: B1 VH
VL: B1 VL
notes: LA-2 heavy-chain variable region, as the VH of m3; linker between the heavy and light variable regions; LA-2 light-chain variable region, as the VL of m3; source: Lenti-X 293T, transfected (PEI), in supernatant
B3: binds [3].

B4: full-length LA-2 monoclonal antibody expressed in liver-specific knock-in mice (antibody, V domains shown)
VH: B1 VH
VL: B1 VL
notes: LA-2 heavy-chain variable region, as the VH of m3; mouse IgG2a heavy-chain constant region; LA-2 light-chain variable region, as the VL of m3; light-chain constant region; Heavy and light chains are made from one transcript with a T2A element between them; residues of T2A may remain on the chains; also called LA-2 antibodies; source: transgenic Mus musculus (knock-in proximal to the albumin …)
B4: binds [4].
